Assay results reported in patent US11339383B2, “G proteins” (HEPTARES THERAPEUTICS LIMITED, priority 2016, dated 2022).
Changes are numbered by the printed parent chain. Names and notes keep the numbering of the source.

Key:
[1] = Thermostability of GDP-bound mini G proteins by differential scanning fluorimetry (DSF); assay type: physicochemical; details: for Stability measured by DSF: mini-G protein alone, GDP-bound; for Mini Gs basal Tm (GDP-bound state, DSF): 1 mM GDP, SYPRO-orange, no receptor
Procedure: SYPRO-orange (15 μl) was added from a 20× stock solution to give a final concentration of 2×. Samples were mixed and 2×50 μl aliquots (duplicates) were transferred to 0.2 ml PCR tubes (Qiagen). Thermostability measurements were performed using a Rotor-Gene Q (Qiagen). Samples were equilibrated for 90 s at 25° C. before ramping from 25 to 99° C. at 4 s/° C. The melting temperature (Tm), corresponding to the inflection point of the curve, was derived from analysis using the Rotor-Gene Q software. Tm values were calculated as the mean±SEM from three independent experiments.
(§1) For constructs see FIGS. 29 and 35-37. Expression, purification and stability measurements by differential scanning fluorimetry (DSF) of the mini-G proteins as well as the non-lipidated Gβ1γ2 dimer, were performed following the protocols described in Example 1. The stability of mini-G proteins was also determined in detergent using native DSF (NanoTemper Prometheus). Mini-G proteins (2 mg/ml) in 50 mM HEPES pH 7.5 (KOH), 20 mM MgCl2, 50 mM NaCl, 1 μM GDP were mixed with either no detergent (control), 0.1% LMNG or 0.1% DDM. Samples were incubated on ice (minimum 30 min) prior to heating on the Prometheus (20% excitation, 15° C.-85° C., rate of 2.0° C./min) and the onset of scattering determined.

[2] = Stability of mini-G proteins in detergent by native DSF; assay type: physicochemical; details: 2 mg/ml, onset of scattering
Procedure: as §1

B1: Mini Gs399: mini Gs393 with N-terminal residues 6-25 replaced and L272D reversed; binds Gβγ (protein)
chain: MGHHHHHHENLYFQGNSKTEDQRNEEKAQREANKKIEKQLQKDKQVYRATHRLLLLGADNSGKSTIVKQMRILHGGSGGSGGTSGIFETKFQVDKVNFHMFDVGGQRDERRKWIQCFNDVTAIIFVVDSSDYNRLQEALNLFKSIWNNRWLRTISVILFLNKQDLLAEKVLAGKSKIEDYFPEFARYTTPEDATPEPGEDPRVTRAKYFIRDEFLRISTASGDGRHYCYPHFTCAVDTENARRIFNDCRDIIQRMHLRQYELL
modifications: MINI GS399
- Stability measured by DSF [1]: 71.6 ± 0.0 °C

B2: Mini-Gs/i148: mini-Gs/i1 chimera construct 48; SEQ ID NO:112 (protein)
chain: B1 chain with C248V, R249T, Q253I, R254K, H256N, Q259D, Y260C, E261G, L263F
modifications: Mini-Gs/i148
- Stability measured by DSF [1]: 72.1 ± 0.1 °C

B3: mini-Gs/o_16: mini-Gs/o1 chimera construct 16; SEQ ID NO:139 (protein)
chain: B1 chain with C248V, R249T, Q253I, R254A, H256N, Q259G, Y260C, E261G, L263Y
modifications: miniGs/o_16
- Stability measured by DSF [1]: 69.0 ± 0.1 °C

B4: Mini-Gi146: mini-Gi1 construct 46: N-terminus re-inserted, D249 back to Leu, G217D; SEQ ID NO:110 (protein)
chain: MGHHHHHHENLYFQGTLSAEDKAAVERSKMIDRNLREDGEKAAREVKLLLLGADNSGKSTIVKQMKIIHGGGGGGGGTTGIVETHFTFKDLHFKMFDVGGQRSERKKWIHCFEDVAAIIFCVDLSDYNRMHESMKLFDSICNNKWFTDTSIILFLNKKDLFEEKIKKSPLTICYQEYAGSNTYEEAAAYIQCQFEDLNKRKDTKEIYTHFTCATDTKNAQFIFDAVTDVIIKNNLKDCGLF
modifications: Mini-Gi146
- less stable than mini-Gs by ([1]; DSF): 17 °C
- Stability measured by DSF [1]: 48 °C
- Stability measured by DSF ([1]; listed as Gs/i1 46): 47.8 ± 0.3 °C

B5: Mini Gs162: mini Gs161 with A249D (protein)
chain: MGHHHHHHANKKIEKQLQKDKQVYRATHRLLLLGAGESGKSTIVKQMRILHGGGGGETKFQVDKVNFHMFDVGGQRDERRKWIQCFNDVTAIIFVVDSSSYNMVIREDNQTNRLQEALNLFKSIWNNRWLRTISVILFLNKQDLLAEKVLAGKSKIEDYFPEFARYTTPEDATPEPGEDPRVTRAKYFIRDEFLRISTASGDGRHYCYPHFTCAVDTENIRRVFNDCRDIIQRMHLRQYELL
modifications: MINI GS162
notes: mini Gs161 with A249D
- Mini Gs basal Tm (GDP-bound state, DSF) [1]: 60.6 ± 0.1 (n = 3) ° C.

B6: Mini Gs164: A249D and switch III deletion (protein)
chain: MGHHHHHHANKKIEKQLQKDKQVYRATHRLLLLGAGESGKSTIVKQMRILHGGGGGETKFQVDKVNFHMFDVGGQRDERRKWIQCFNDVTAIIFVVDSSSYNRLQEALNLFKSIWNNRWLRTISVILFLNKQDLLAEKVLAGKSKIEDYFPEFARYTTPEDATPEPGEDPRVTRAKYFIRDEFLRISTASGDGRHYCYPHFTCAVDTENIRRVFNDCRDIIQRMHLRQYELL
modifications: MINI GS164
notes: A249D and switch III deletion
- Mini Gs basal Tm (GDP-bound state, DSF) [1]: 66.5 ± 0.0 (n = 3) ° C.

B7: Mini Gs183: G49D-E50N-A249D-S252D-SIII-L272D (protein)
chain: B6 chain with G36D, E37N, S100D, L110D
modifications: MINI GS183
notes: G49D-E50N-A249D-S252D-SIII-L272D
- Mini Gs basal Tm (GDP-bound state, DSF) [1]: 72.5 ± 0.0 (n = 3) ° C.

B8: Mini Gs169: A249D-S252D-SIII- (mutation list truncated in table) (protein)
chain: B6 chain with S100D, L110D
modifications: MINI GS169
- Mini Gs basal Tm (GDP-bound state, DSF) [1]: 67.1 ± 0.0 (n = 3) ° C.

B9: Mini Gs165: A249D-S252D-SIII (protein)
chain: B6 chain with S100D
modifications: MINI GS165
notes: A249D-S252D-SIII
- Mini Gs basal Tm (GDP-bound state, DSF) [1]: 68.7 ± 0.0 (n = 3) ° C.

B10: Gαs: purified non-lipidated Gαs subunit (protein, UniProt P63092 2-394, looked up)
Guanine nucleotide-binding …: GCLGNSKTEDQRNEEKAQREANKKIEKQLQKDKQVYRATHRLLLLGAGESGKSTIVKQMRILHVNGFNGEGGEEDPQAARSNSDGEKATKVQDIKNNLKEAIETIVAAMSNLVPPVELANPENQFRVDYILSVMNVPDFDFPPEFYEHAKALWEDEGVRACYERSNEYQLIDCAQYFLDKIDVIKQADYVPSDQDLLRCRVLTSGIFETKFQVDKVNFHMFDVGGQRDERRKWIQCFNDVTAIIFVVASSSYNMVIREDNQTNRLQEALNLFKSIWNNRWLRTISVILFLNKQDLLAEKVLAGKSKIEDYFPEFARYTTPEDATPEPGEDPRVTRAKYFIRDEFLRISTASGDGRHYCYPHFTCAVDTENIRRVFNDCRDIIQRMHLRQYELL
modifications: non-lipidated
notes: purified non-lipidated Gαs subunit
- Mini Gs basal Tm (GDP-bound state, DSF) [1]: 50.1 ± 0.1 (n = 3) ° C.

B11: Mini Gs199: mini Gs, Gly8 linker, switch III deleted, G49D E50N A249D S252D L272D (protein)
chain: MGHHHHHHANKKIEKQLQKDKQVYRATHRLLLLGADNSGKSTIVKQMRILHGGGGGGGGTSGIFETKFQVDKVNFHMFDVGGQRDERRKWIQCFNDVTAIIFVVDSSDYNRLQEALNDFKSIWNNRWLRTISVILFLNKQDLLAEKVLAGKSKIEDYFPEFARYTTPEDATPEPGEDPRVTRAKYFIRDEFLRISTASGDGRHYCYPHFTCAVDTENIRRVFNDCRDIIQRMHLRQYELL
modifications: MINI GS199
notes: mini Gs, Gly8 linker, switch III deleted, G49D E50N A249D S252D L272D
- Mini Gs basal Tm (GDP-bound state, DSF) [1]: 72.5 ± 0.0 (n = 3) ° C.

B12: Mini Gs254: mini Gs199 with M60A (protein)
chain: B11 chain with M47A
modifications: MINI GS254
notes: mini Gs199 with M60A
- Mini Gs basal Tm (GDP-bound state, DSF) [1]: 70.3 ± 0.0 (n = 3) ° C.

B13: Mini Gs352: mini Gs199 with L63Y-I372A (protein)
chain: B11 chain with L50Y, I218A
modifications: MINI GS352
notes: mini Gs199 with L63Y-I372A
- Mini Gs basal Tm (GDP-bound state, DSF) [1]: 64.7 ± 0.1 (n = 3) ° C.

B14: Mini Gs350: mini Gs199 with L63Y (protein)
chain: B11 chain with L50Y
modifications: MINI GS350
notes: mini Gs199 with L63Y
- Mini Gs basal Tm (GDP-bound state, DSF) [1]: 70.7 ± 0.0 (n = 3) ° C.

B15: Mini Gs340: mini Gs199 with I372A (protein)
chain: B11 chain with I218A
modifications: MINI GS340
notes: mini Gs199 with I372A
- Mini Gs basal Tm (GDP-bound state, DSF) [1]: 66.6 ± 0.1 (n = 3) ° C.

B16: Mini Gs345: mini Gs199 with I372A-V375I; detergent stabilised construct (protein)
chain: B11 chain with I218A, V221I
modifications: MINI GS345
notes: mini Gs199 with I372A-V375I; detergent stabilised construct
- Mini Gs basal Tm (GDP-bound state, DSF) [1]: 65.4 ± 0.1 (n = 3) ° C.

B17: Mini GS303: mini Gs199 with V375I (protein)
chain: B11 chain with V221I
modifications: MINI GS303
notes: mini Gs199 with V375I
- Mini Gs basal Tm (GDP-bound state, DSF) [1]: 70.3 ± 0.0 (n = 3) ° C.

B18: Mini-Golf6: mini-G protein of Golf, 7 point mutations and 3 deletions from mini-Gs; SEQ ID NO:105 (protein)
chain: MGHHHHHHENLYFQGIEKQLQKERLAYKATHRLLLLGADNSGKSTIVKQMRILHGGSGGSGGTSGIFETRFQVDKVNFHMFDVGGQRDERRKWIQCFNDVTAIIYVADCSDYNRLRESLDDFESIWNNRWLRTISIILFLNKQDMLAEKVLAGKSKIEDYFPEYANYTVPEDATPDAGEDPKVTRAKFFIRDLFLRISTATGDGKHYCYPHFTCAVDTENARRIFNDCRDIIQRMHLKQYELL
modifications: Mini-Golf6
- Stability measured by DSF ([1]; listed as Golf 6): 64.8 ± 0.4 °C
- Stability measured by DSF ([1]; listed as mini-Golf): 65 °C
- Stability in detergent measured by native DSF, 0.1% DDM [2]: 37.4 ± 0.2 °C
- Stability in detergent measured by native DSF, 0.1% LMNG [2]: 41.9 ± 0.0 °C
- Stability in detergent measured by native DSF, No detergent [2]: 44.3 ± 0.1 °C

B19: Mini-Go112: mini-G protein of Go1, construct 12; SEQ ID NO:113 (protein)
chain: MGHHHHHHENLYFQGIEKNLKEDGISAAKDVKLLLLGADNSGKSTIVKQMKIIHGGSGGSGGTTGIVETHFTFKNLHFRLFDVGGQRSERKKWIHCFEDVTAIIFCVDLSDYNRMHESLMDFDSICNNKFFIDTSIILFLNKKDLFGEKIKKSPLTICFPEYTGPNTYEDAAAYIQAQFESKNRSPNKEIYCHMTCATDTNNAQVIFDAVTDIIIANNLRGCGLY
modifications: Mini-Go112
- Stability measured by DSF ([1]; listed as Go1 12): 63.8 ± 0.1 °C
- Stability measured by DSF ([1]; listed as mini-Go1): 64 °C
- Stability in detergent measured by native DSF, 0.1% DDM [2]: 32.6 ± 0.2 °C
- Stability in detergent measured by native DSF, 0.1% LMNG [2]: 40.7 ± 0.1 °C
- Stability in detergent measured by native DSF, No detergent [2]: 43.6 ± 0.2 °C
